In data set [1] the target is T1, IMP2 KH34 (NMR) (UniProt Q9Y6M1 425-581). The data set is described as follows: NMR titration; bound by KH3, fast exchange; EMSA: 100 pM RNA, 10 mM Tris, 100 mM NaCl, 0.1 mM EDTA, 0.01 mg/mL tRNA, 50 ug/mL heparin, 0.01% IGEPAL CA630, room temperature, 3 h; pH not stated. The settings on record: protein: recombinant; tags: 6xHis. Background: Mobility shift assays separate free from complexed probe on a gel.

The target in data set [2] is T2, ZBP1 KH34 (UniProt Q9NZI8 405-553). Put plainly: EMSA; EMSA: 100 pM RNA, 10 mM Tris, 100 mM NaCl, 0.1 mM EDTA, 0.01 mg/mL tRNA, 50 ug/mL heparin, 0.01% IGEPAL CA630, room temperature, 3 h; pH not stated. To be noted: protein: recombinant; tags: MBP.
T2 sequence (Q9NZI8 405-553): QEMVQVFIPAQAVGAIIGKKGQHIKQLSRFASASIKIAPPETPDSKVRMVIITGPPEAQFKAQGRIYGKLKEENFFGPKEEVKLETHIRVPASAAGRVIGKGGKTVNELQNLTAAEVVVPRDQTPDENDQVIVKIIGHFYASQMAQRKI
For data set [3], the target named is T3, IMP2 KH34 (UniProt Q9Y6M1 425-581). Described as above. To be noted: protein: recombinant; tags: MBP.
T3 sequence (Q9Y6M1 425-581): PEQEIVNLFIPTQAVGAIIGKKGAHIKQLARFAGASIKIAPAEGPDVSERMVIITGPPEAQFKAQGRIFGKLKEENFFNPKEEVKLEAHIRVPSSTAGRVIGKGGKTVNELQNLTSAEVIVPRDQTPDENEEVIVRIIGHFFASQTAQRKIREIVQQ
For data set [4], the target named is T2, ZBP1 KH34. Put plainly: EMSA; text: tight to IMP2 and not to ZBP1; EMSA: 100 pM RNA, 10 mM Tris, 100 mM NaCl, 0.1 mM EDTA, 0.01 mg/mL tRNA, 50 ug/mL heparin, 0.01% IGEPAL CA630, room temperature, 3 h; pH not stated. The settings on record: protein: recombinant; tags: MBP.
For data set [5], the target named is T1, IMP2 KH34 (NMR). The data set is described as follows: NMR titration; bound by KH4, intermediate exchange; EMSA: 100 pM RNA, 10 mM Tris, 100 mM NaCl, 0.1 mM EDTA, 0.01 mg/mL tRNA, 50 ug/mL heparin, 0.01% IGEPAL CA630, room temperature, 3 h; pH not stated. The settings on record: protein: recombinant; tags: 6xHis.
In data set [6] the target is T3, IMP2 KH34. The data set is described as follows: EMSA; tenfold higher affinity than WT zipcode; EMSA: 100 pM RNA, 10 mM Tris, 100 mM NaCl, 0.1 mM EDTA, 0.01 mg/mL tRNA, 50 ug/mL heparin, 0.01% IGEPAL CA630, room temperature, 3 h; pH not stated. To be noted: protein: recombinant; tags: MBP.

T1 sequence (Q9Y6M1 425-581): as above

CCCUCACC (ssRNA) [CA element RNA (5' RE)]: in data set [1], the binding result is recorded as “binds”. For the molecule ACCGGACUGUUACCAACACCCACACCCC (ssRNA) [C28 beta-actin zipcode WT], the Kd (in general, the free concentration of one partner at which half of the binding sites on the other are occupied at equilibrium, for simple one-to-one binding) in data set [2] was 15 ± 4.9 nM; in data set [3], 161 ± 25 nM.

B1: SELEX RNA #2 (ssRNA)
RNA: GGGCAGAGCGACGCAGUUUAGCCUGUGUAUACAGCGAACCCUUAGGAUGAUCGAUAGUUGCGUGCGUCGAAA
Take B1: the binding result in data set [3] is listed as “binds”; in data set [4], “no binding”.

B2: SELEX RNA #1 WT (ssRNA)
RNA: GGGCAGAGCGACGCAGUUUAGCGGCCUCAGCGAACCCUUUGGAACACUUCUCGAUAGUUGCGUGCGUCCAAA
Regarding B2, the binding result is reported as “binds” in data set [3] and “no binding” in data set [4]. Take UUUGGAAC (ssRNA) [GG element RNA (3' RE)]: in data set [5], the binding result is “binds”.

ACCGGACUGUUACCAACACCCUCACCCC (ssRNA) [C28 A22U]: the binding result in data set [6] was “binds”.

For the origin of these results see paper PMC6768852, “The structural basis for RNA selectivity by the IMP family of RNA-binding proteins”.
